The text below walks through data of the DeepSol protein solubility set.

This data set can be described thus: soluble on expression in E. coli; label from the status in PepcDB or PDB records.
Regarding “MQTSHSLPSAQLPLFQEAFWASNGAPLLDDVIDSPSSASIEEPAAFSELSLSGLPGHCLTLLAPILRELSEEQDARWLTLIAPPASLTHEWLRRAGLNRERILLLQAKDNAAALALSCEALRLGRSHTVVSWLEPLSRAARKQLSRAAQLGQAQSLNIRLG”, the “soluble on expression in E. coli” value is recorded as “soluble”. As to “MKCLVTGGNVKVLGKAVHSLSRIGDELYLEPLEDGLSLRTVNSSRSAYACFLFAPLFFQQYQAATPGQDLLRCKILMKSFLSVFRSLAMLEKTVEKCCISLNGRSSRLVVQLHCKFGVRKTHNLSFQDCESLQAVFDPASCPHMLRAPARVLGEAVLPFSPALAEVTLGIGRGRRVILRSYHEEEADSTAKAMVTEMCLGEEDFQQLQAQEGVAITFCLKEFRGLLSFAESANLNLSIHFDAPGRPAIFTIKDSLLDGHFVLATLSDTDSHSQDLGSPERHQPVPQLQAHSTPHPDDFANDDIDSYMIAMETTIGNEGSRVLPSISLSPGPQPPKSPGPHSEEEDEAEPSTVPGTPPPKKFRSLFFGSILAPVRSPQGPSPVLAEDSEGEGLEHHHHHH”, the “soluble on expression in E. coli” value is “not soluble”.

Turning to “GPGSMKKCWVFDCAAPGLYCEPRRLLKPFSTDSILDAAGRAFETVEDGLKATTWRTHHAFSARCGLTSVTRSDSTTCGKGVEESSVSRSPEDYREWHADFHLRSPSAEPHVLLSVAPHYLPSRGSGNADDGRKMEVVGSRGRWLKPWRPQTAEEQAAYDAAVLGTPLIWEEPLVLSLDCTADGVFLWSEDHGIYGEKVANRCFERHSSDAGDDSAEFKQEAFLRFRWSEQPPAQTSSVGSGRHEMKEEHVESPNVSKCGELRVFRGQRTKVEAEEPHVERISYEEADVDAGSGGFLWQSVLHRIISCGPVPKEVYFAPYVTLMESGDEVSLL”, the “soluble on expression in E. coli” value is reported as “not soluble”. “MGSDKIHHHHHHMKAFQYAARAQRIVFGAGTIRQVGEEIDALGASSVLVLSTPEQRRLAEQVSDLLGARAIGIFDRAVMHVPVETARAACAMAFELGADSVVAIGGGSTTGLAKAIALEMSVPVLAIPTTYAGSEMTTIYGLTDAGLKRTGTDVRVLPRTVIYDPELTYLLPAAISVTSGINALAHAAEGLYAHDRNPISDLMAREGIQAMAAALPALVSERDTARLREARAQALYGAWLCGAVLGSVGVALHHKLCHTLGGSFNLPHAETHTIILPHALAYNAKAAPDAMASIAQALGADNAAQGAFDLARTTGAPLGLRQIGMREDELDKACEIALQNQYPNPRPLEAGAIRELLQNAWEGRRPV”: the “soluble on expression in E. coli” value was “not soluble”. With “YLSKYRNETGRSPSFLVNIDSSLKSLAHVDVIYPVGDPIFIHIYERGKERRYKPIEPLLKDDEFEFMDAILDIIMSRASDYPPAENEEEQEKNIEDVYKKTVS” the entry was “soluble”; with “MIKLTVSHHKLTASGHALFAKKGQDIVCAAVSGIIFGALPWFETNSIAVQEDATVPSLSLELVQPTAKLITGLSVVIMQLKTLAHSYPQFISFEDQRKDE”, “soluble”. With “TADNNSMPHGAVSSYAKLVQNQTPEDILEEFPEIIPLQQRPNTRSSETSNDESGETCFSGHDEEQIKLMNENCIVLDWDDNAIGAGTKKVCHLMENIEKGLLHRAFSVFIFNEQGELLLQQRATEKITFPDLWTNTCCSHPLCIDDELGLKGKLDDKIKGAITAAVRKLDHELGIPEDETKTRGKFHFLNRIHYMAPSNEPWGEHEIDYILFYKINAKENLTVNPNVNEVRDFKWVSPNDLKTMFADPSYKFTPWFKIICENYLFNWWEQLDDLSEVENDRQIHRML” the entry was “soluble”; with “MRVYAIADPHLSRVHPKPMTVFGAGWEGHPEAFFRGWREVVGEEDLVVVPGDISWAMRLSEAIPDLLDLARLPGRKVLLKGNHDYWWPSISRLRAALPPGMYALQNDALVVDGVAVAGTRGWQYPPQTPEDEKVFAREVERLKLSLKALEGQPYRHLVVAFHFPPFGPGGEASPLLELAAGAHPQAIVYGHLHGADPAKLPQSYRGIPLHLVAADALRFRPKLVLEAD”, “soluble”. Next, “MVESWALTTPPIDIVNQYLFFIKRKTNYMATYYYALASQKFLLEEEPFEEVLKERRRDYGEKNKEIDFWQVIQPAFLNAPELAEAKAKAPEKNVAIVSTNKSFIVWVKLRLEYVLTGEFEAPSDAIPDPLASLDLEHHHHHH”: “not soluble”; “MATLDGINVKDIVKVERTSVHSHITGLGLNDRLEAEYVSGGMVGQVAARQAAGLIVKMIQEGKIAGRALLVTGEPGAGKTAIAIAISKELGEDTPFVSIVASEIYSNEINKTEALTQAFRRALGIQIKEETEVLEGEVISLEVDRSANGMGPKVGKLTMRTTDMETIYDLGSKMVDACLKEKVMPGDVIQVDKASGRVTRLGRSFNRSHDYDAMGPKVKLVQCPDGEIQKRRETVHTVCLHDIDVINSRTQGYVALFSGDTGEIKAEVRDQINKKVLEWREEGKAKFVPGVLFIDEAHMLDIECFSFLNRAIEGELSPLIIMATNRLIEKVRGTDVESAHGIPSDFLDRMLIINAIPYTKEDTAKILSIRCDEEGVKLQPTALDLLVKLQEATSLRYCIHLIAASEVIRIRSKAEIVTTDHIGSAYRLFFDTKRSEKILTEESAGFLQ”: “not soluble”; “MKCLKPSIGPVRGTDGDWKNIMKQFLRCGLAFAWSSVLGSSIAMDSLFGLPVRSTVKANLGALREGYVNIAVHGHSPLLVSEIVKQGRSREFIQMAKEKGALGIQFYGICCSGLSAMYRYGGVIPLSNAIGAELVLGTGAIDLWVADVQDVFPSIMDVAKCFKTTVVTTSDSARLPGAEHYAYDHHHSNLAQTQELAKTIVKRAIESFEARRDVPVFIPNYEVDAEIGFSVEYATSRFGSMDVIAKALQEGKIRGVVNLVGCNNPRVMYEKAIADVARKLIENNILVLTNGCASFPLLKLGYCNVKALEWTGKELREFLEPDLPPVWHMGECLDNARASAFFRALADSLKKDIKDMPFAFASPEWSNEKGVGAALGFRLLGINSYHSVYPPVQGSKNVMKYLFEDTEKTLGAVMIVEVDPLKLADRIISDIDEKRKALMWK”: “not soluble”. Turning to “MHHHHHHGRIGIPRERLTNETRVAATPKTVEQLLKLGFTVAVESGAGQLASFDDKAFVQAGAEIVEGNSVWQSEIILKVNAPLDDEIALLNPGTTLVSFIWPAQNPELMQKLAERNVTVMAMDSVPRISRAQSLDALSSMANIAGYRAIVEAAHEFGRFFTGQITAAGKVPPAKVMVIGAGVAGLAAIGAANSLGAIVRAFDTRPEVKEQVQSMGAEFLELDFKEEAGSGDGYAKVMSDAFIKAEMELFAAQAKEVDIIVTTALIPGKPAPKLITREMVDSMKAGSVIVDLAAQNGGNCEYTVPGEIFTTENGVKVIGYTDLPGRLPTQSSQLYGTNLVNLLKLLCKEKDGNITVDFDDVVIRGVTVIRAGEITWPAPPIQVSAQPQAAQKAAPEVKTEEK”, the “soluble on expression in E. coli” value was “soluble”. Next, “MDLHSGLPYWVVKNSLLDYFHPLEDDFSTDIVVVGSGITGALMVHELCSAGLRCCMVDKRSIATGSSIASTALLQYEIDVPLCEMAEIIGEDNAVSAYRASLASIADIEKVLKETGVDADFEKRPSLFYASIPKDIELIEKEYVIRKKHNLPVRLLGKEEIKKLYNIEVPGNALLNRVSAQMDAYKATTGLLLYHMKKDGLEIFTHTGVTECVEMPEGYIIETDRGHKIECKYVIIASGFEAGKFLSREIMDLTSTYALVSHPVDSKDLWPEQCLIWETAEPYLYIRTTRGNRIIVGGEDEKFSDPERRDALLRKKTLVLEKKFRRLFPSIPFKTEMAWCGTFSTTKDGLPFIGNCPDKDRMFFDLGYGGNGITFSMIGAQIICKKLQGIDDERGRIFGYERIEKYWLEHHHHHH”: “not soluble”. Next, “PPHVKYIKEKEICDYEPSSDAGHFRWYPKGKLIRDLLSDYVYNLVVENGGMPVETPVMYDLQNNAIREHADKFGERQYRFKQGNKDLMLRFAACFGQFMMKKDMYLLPKHMPLKLYELSTYSFRYEQRGELVGLKRLRAFTMPDMHTVCIDMKQAMEAFEDQLWMGLKTGDDFKTPYAIIFRFTEDFFEENKEWFFGMAKEYKQKYGKDAILEILPGRKHYWVGKVDMAVVDSFGRPIENPTVQIDVESAERFGIVVHDGDKKVQPIILHCSPTGSVERVLCGLLEN”: “not soluble”; “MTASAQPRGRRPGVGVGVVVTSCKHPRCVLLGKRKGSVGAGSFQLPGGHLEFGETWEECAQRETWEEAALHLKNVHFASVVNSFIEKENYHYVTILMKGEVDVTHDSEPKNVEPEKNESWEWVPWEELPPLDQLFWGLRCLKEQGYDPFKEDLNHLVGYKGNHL”: “soluble”; “MGSDKIHHHHHHMDLYFVKFRVTSKLTSEIVQGYFLGKLNQIPEYDFFVIPGRYARKYSVDLNLGFEDFLEDFKAKKESALKEVLEASAITDEFFDFWLIQSRKQNLRLVGSEFFRLVESGDHEALRVFIADLFREWSEKLEVEVVGVPLDYEDVSLEVVKEHFEELSTDEVFKLFQREDLRNLPEVFPVLDPLNGVTIREIDVEERIDFVILNYGNEEFSEKFKRFLKEKFGTENVASLPGKVLSKEIVKTREGTLYLLKVEFEEGIIGKAIVSPNLKIKRGESRVKISDEEWMEKIGEMLKEGEESKQEKLKLRNSPQPVQKTTSSD”: “not soluble”.

As to “MGSDKIHHHHHHMTTTKKTGERLIKKYPNRRLYDTETSTYITLTDVKQLVLEQEDFKVIDAKSSEDLTRSILLQIILEEESGGVPMFSSSMLSQIIRFYGHAMQGMMGTYLEKNIQAFIDIQSKLADQSKNLYENNAMNPEVWSQFMNMQAPMMQGMMTSYIEQSKNMFVQMQEQMQNQAKTMFSSFPFKPATPPGSEPEKK”, the “soluble on expression in E. coli” value was “not soluble”. With “MSLRTPYEEVRDFFHFVDNYVAEIDLLAEELAQELEIEGGETYGILAAHLRSLYGIHITRTEAAGGLIRHFDPAGKTLALSSYMAAPTRCFQLALQIAQLHAGATVDRVLAGAGFRNAEAAEICRIGLHNYFAAALILPYGQFHRAAQELRHDLELLAVRFGASLEQVAHRLSTLQRPGMKGVPIFFAKIDRAGNITKRHSATRLQFARFGAACPLWNIHQAFESSDRIVRQLAETPDGVRYLSIATQIEKAGAGFNTERPRYAIALGCEISHAQNFVYADTLDLGNAASFKPIGISCRVCERVDCVQRAVPPLKRKLHFDHLSRGALPYQIAEGHHHHHH” the entry was “soluble”. For “MGSSHHHHHHDYDIPTTENLYFQGHMATNLKSTAKLVKPIQYDEVIEVERIFADPAFIEQHRQRILASFKDAKESALYHELTHIVIKDNLFSCAMNAIVGYFEFNIDEAELKNVMEGLKRDVIQGAEDNTVQAIAEKIIKKALVFNHLQKEWKVEITDEVVKNVISLYYEKTNQSVREYLDDKQKFEGVRTALLEERMVLETINHFKFHFNLTGQLPN”, the “soluble on expression in E. coli” value is “soluble”. As for “DSYYNGHQDGDAIAYLILANKLIHELCPDAITIAEEVSGMPGLALPLADGGYGFDYRLAMNIPDFWIKLIKEHRDEDWNPGDIWYQLTNRRQEEKTISYAESHDQALVGDKTIIFRLIDADMYWYMNKQSCVHSVDRGIALLKMIRLFTATTMNGGYLNFMGNEFGHPEWIDFPREGNGWSYKYARRQWSLADSPFLRYAGLHLFDQDMIAMIRSVESFHKLPLREYWLKREEQVICYGRGDFFFVFNFHPERSYSDYPIPLPAGKYSVAMSTDARKYEGFGRVDEWVEHFTLPDGSKDRFTHEQYLNLYLPARSALVLKLAE”, the “soluble on expression in E. coli” value is “not soluble”. On to “MKIEHLQHPTTHQLDQLMTIWLSGNLTAHDFVSADYWRQQAPLVREALQSAELIVGLTDGPEAYILGFIGLQNDYIAGIFICNDAQHQGLGTALLATAQADYHQLQLNVYVANRPAIAFYHYHGFRVIDQASDQATQQSEYTMQWQR”, for which the “soluble on expression in E. coli” value is on record as “not soluble”.
